Source: US20050042213A1 (INSIGHT BIOPHARMACEUTICALS, published 2005)

Assays:
Test in all cases: cell-based or functional assay
[1] = target: T1, active heparanase (H53), heterodimer of the 8 kDa and 45 kDa subunits (human, UniProt Q9Y251 36-109; Q9Y251 158-543)
T1 sequence 1: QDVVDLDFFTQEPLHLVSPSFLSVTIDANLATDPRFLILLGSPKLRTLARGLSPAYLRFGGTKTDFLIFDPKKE
T1 sequence 2: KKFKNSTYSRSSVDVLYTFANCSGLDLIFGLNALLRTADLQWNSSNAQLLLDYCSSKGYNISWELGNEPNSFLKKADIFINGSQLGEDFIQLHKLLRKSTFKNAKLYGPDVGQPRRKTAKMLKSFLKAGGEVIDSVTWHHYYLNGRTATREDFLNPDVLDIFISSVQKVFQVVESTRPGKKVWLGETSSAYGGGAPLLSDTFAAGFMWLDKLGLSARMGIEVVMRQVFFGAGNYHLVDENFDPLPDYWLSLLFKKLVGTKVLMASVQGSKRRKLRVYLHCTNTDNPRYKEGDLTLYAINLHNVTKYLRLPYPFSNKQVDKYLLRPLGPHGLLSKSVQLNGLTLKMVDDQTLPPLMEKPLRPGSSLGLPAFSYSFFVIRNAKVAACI

[2] = target: T1, active heparanase (H53), heterodimer of …; remark: listed apart in the source
[3] = target: T2, pro-heparanase (H60), purified recombinant human 60 kDa latent heparanase (human, UniProt Q9Y251 36-543)
T2 sequence: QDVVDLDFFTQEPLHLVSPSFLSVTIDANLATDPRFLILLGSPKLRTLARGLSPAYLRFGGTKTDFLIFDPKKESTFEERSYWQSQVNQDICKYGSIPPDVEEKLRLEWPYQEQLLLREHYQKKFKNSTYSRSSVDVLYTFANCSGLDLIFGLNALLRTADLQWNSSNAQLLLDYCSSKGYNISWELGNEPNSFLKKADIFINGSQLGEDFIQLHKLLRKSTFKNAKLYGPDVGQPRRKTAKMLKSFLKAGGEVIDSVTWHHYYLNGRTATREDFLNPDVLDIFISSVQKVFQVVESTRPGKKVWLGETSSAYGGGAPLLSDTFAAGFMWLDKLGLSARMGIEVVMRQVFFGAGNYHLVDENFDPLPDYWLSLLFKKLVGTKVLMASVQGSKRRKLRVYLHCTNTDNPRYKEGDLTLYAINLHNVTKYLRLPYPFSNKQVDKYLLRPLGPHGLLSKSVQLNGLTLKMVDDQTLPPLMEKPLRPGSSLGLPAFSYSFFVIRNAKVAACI

Row | Binder | IC50 Heparanase [1] | IC50 H53 [2] | IC50 H60 (µM), H60 activation in the cell-based assay [3]
1 | CTWHHYYLNGRTATR [Pep-25] | 21 µM | – | –
2 | DPRFLILL [P8-16] | – | 6 µM | –
3 | LRTLARGLSPAYL [P8-5] | – | 18 µM | –
4 | CPAYLRFGGTKTDFLIFDPLLE [Pep-7] | – | 7 µM | –
5 | RFLILL [P8-18] | – | 5 µM | –
6 | PRFLILLGSPKLR [P8-4] | – | 2.3 µM | –
7 | PRFLILL [P8-11] | – | 1.4 µM | 65 µM
8 | FLILLGSPKLRTL [P8-8] | – | 8 µM | –
